Drawing on article PMC5241339, this text covers Kd, cell association higher than in CHO-K1 cells and binding higher than in CHO-K1 cells for 3 substances.

Test [1] has as its target CD36 (His-tagged recombinant human protein, Sino Biological, Life technologies, 70-80 kDa) (human) (UniProt P16671). Nature of the test: SPR; Biacore T100; CD36 immobilized by amine coupling on a C1 chip (1000 RU); S100A12 species as analyte 0.62-50.0 nM, single cycle kinetics, 30 µL/min, 25 °C; HBS-P+ with 350 µM CaCl2; two-state reaction model. On the technique in general: In SPR one partner is held on a chip, and binding of the other changes the refractive index at the surface.

Test [2] deals with CD36 on CHO-CD36 cells (UniProt P16671). In words: radioligand binding; CHO cell lines incubated with [18F]FB-rS100A12 in PBS++ for 90 min at 37 °C, lysed, gamma counter, % ID per protein; blocking with 15-fold excess of rS100A12 or anti-CD36 antibody FA6-152 added 20 min before.
Sequence of CD36 on CHO-CD36 cells (P16671 whole entry): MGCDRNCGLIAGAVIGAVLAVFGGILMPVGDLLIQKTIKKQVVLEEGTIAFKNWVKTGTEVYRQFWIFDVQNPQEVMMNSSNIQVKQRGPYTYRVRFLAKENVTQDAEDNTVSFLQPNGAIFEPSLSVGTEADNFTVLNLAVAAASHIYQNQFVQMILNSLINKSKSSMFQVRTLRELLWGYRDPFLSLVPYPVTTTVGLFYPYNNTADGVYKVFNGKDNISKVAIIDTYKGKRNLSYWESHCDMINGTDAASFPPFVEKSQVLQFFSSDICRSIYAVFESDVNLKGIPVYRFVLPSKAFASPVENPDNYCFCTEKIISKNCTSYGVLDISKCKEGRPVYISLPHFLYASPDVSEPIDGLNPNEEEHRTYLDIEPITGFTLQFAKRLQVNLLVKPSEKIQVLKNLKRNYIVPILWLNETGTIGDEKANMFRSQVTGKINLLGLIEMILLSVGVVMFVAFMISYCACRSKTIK
Test [3] has as its target receptor for advanced glycation endproducts (RAGE) on CHO-RAGE cells (UniProt Q15109). Described as above.
Test [4] addresses CD36 on CHO-CD36 cells (UniProt P16671). In words: cell binding of a fluorescent tracer (fluorescence of cell lysates, plate reader); CHO cell lines in 24-well plates incubated with 10 µM fluorescein-rS100A12 for 90 min at 37 °C, lysed, fluorescence per protein; blocking with anti-CD36 antibody FA6-152 10 µg/mL, 30 min before.
Test [5] concerns the target receptor for advanced glycation endproducts (RAGE) on CHO-RAGE cells (UniProt Q15109). Described as above.

“And” between values parts separate entries of the source, which are not always exact repeats. Equal entries are not always repeated.

The Kd is the concentration at which binding is half-saturated.

Sequence of CD36 (His-tagged recombinant human protein, Sino Biological, Life technologies, 70-80 kDa) (human) (P16671 30-439): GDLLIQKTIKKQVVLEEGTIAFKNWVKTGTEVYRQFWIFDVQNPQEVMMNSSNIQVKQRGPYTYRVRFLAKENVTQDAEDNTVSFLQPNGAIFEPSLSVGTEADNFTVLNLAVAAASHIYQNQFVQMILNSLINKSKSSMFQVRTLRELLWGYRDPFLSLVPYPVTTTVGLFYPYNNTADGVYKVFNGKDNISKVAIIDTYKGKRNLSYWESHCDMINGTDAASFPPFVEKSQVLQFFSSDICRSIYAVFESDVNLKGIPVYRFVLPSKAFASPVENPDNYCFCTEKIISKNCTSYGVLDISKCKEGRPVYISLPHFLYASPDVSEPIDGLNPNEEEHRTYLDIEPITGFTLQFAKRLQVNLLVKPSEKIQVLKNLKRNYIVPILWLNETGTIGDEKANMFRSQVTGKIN
Sequence of receptor for advanced glycation endproducts (RAGE) on CHO-RAGE cells (Q15109 23-404): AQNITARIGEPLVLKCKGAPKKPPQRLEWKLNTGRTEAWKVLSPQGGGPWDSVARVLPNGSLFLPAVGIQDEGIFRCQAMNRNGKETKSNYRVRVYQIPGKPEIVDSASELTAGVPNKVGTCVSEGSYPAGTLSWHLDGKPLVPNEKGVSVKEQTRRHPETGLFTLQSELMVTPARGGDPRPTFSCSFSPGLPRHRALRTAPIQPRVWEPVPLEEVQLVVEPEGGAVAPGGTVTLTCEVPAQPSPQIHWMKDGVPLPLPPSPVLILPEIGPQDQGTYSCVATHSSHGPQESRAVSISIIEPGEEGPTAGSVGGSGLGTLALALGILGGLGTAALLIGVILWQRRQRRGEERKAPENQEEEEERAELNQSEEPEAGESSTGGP
Sequence of 4-[18F]fluorobenzoyl-rS100A12 ([18F]FB-rS100A12) (natural protein) (P80511 2-92): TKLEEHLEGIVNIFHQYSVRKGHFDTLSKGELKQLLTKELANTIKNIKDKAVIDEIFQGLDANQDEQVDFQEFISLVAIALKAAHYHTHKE

As for “recombinant S100A12 (rS100A12) (natural protein)”, the Kd in test [1] was 0.67 nM and 0.99 nM.
Consider “4-[18F]fluorobenzoyl-rS100A12 ([18F]FB-rS100A12) (natural protein)”, for which the cell association higher than in CHO-K1 cells in test [2] amounted to 20%; in test [3], 40%.
On to “fluorescein-labeled rS100A12 (natural protein)”, for which the Kd in test [1] amounted to 4.79 nM. In addition, the values for the binding higher than in CHO-K1 cells in test [4] and in test [5] were 30% and 50%, respectively.
